System: zein
Assay: Relative activity assay of protease variants (zein micro titer plate)
Format: biochemical
Method: Each well contains 200 microL of 0.05-0.1% of zein (Sigma), 0.25 mM ZnSO4 and 1% of agar in 20 mM sodium acetate buffer, pH 4.5.
Yeast clones on SC-glucose were inoculated to a well of a 96-well micro titre plate containing YPD+Zn medium and cultivated at 28° C. for 3 days. The culture supernatants were applied to a 96-well zein micro titer plate and incubated at at least 2 temperatures (ex. 60° C. and 65° C., 70° C. and 75° C., 70° C. and 80° C.) for more than 4 hours or overnight. The turbidity of zein in the plate was measured as A630 and the relative activity (higher/lower temperatures) was determined as an indicator of thermoactivity improvement. The clones with higher relative activity than the parental variant were selected and the sequence was determined.

Molecule	Relative activity 75° C./70° C. (Table 5, upper part) [%]	Relative activity 80° C./70° C. (Table 5, upper part) [%]	other results
JTP144: protease variant of SEQ ID NO: 3: A37P D79L S87P A112P D142L (protein, listed as Thermoascus aurantiacus) MRLVASLTALVALSVPVFPAAVNVKRASSYLEITLSQVSNTLIKAVVQNTGSDELSFVHLNFFKDPAPVKKVSVYRDGSEVQFEGILSRYKSTGLSRDAFTYLAPGESVEDVFDIASTYDLTSGGPVTIRTEGVVPYATANSTDIAGYISYSSNVLTIDVDGAAAATVSKAITPLDRRTRISSCSGSRQSALTTALRNAASLANAAADAAQSGSPSKFSEYFKTTSSSTRQTVAARLRAVAREASSSSSGATTYYCLDPYGYCSPNVLAYTLPSYNIIANCDIFYTYLPPLTSTCHAQDQATTALHEFTHAPGVYSPGTLDLAYGYQAAMGLSSSQAVMNADTYALYANAIYLGC	57	–	–
JTP210: protease variant of SEQ ID NO: 3: A27K Y82F S87G D104P A112P A126V D142L (protein, listed as Thermoascus aurantiacus) MRLVASLTALVALSVPVFPAAVNVKRASSYLEITLSQVSNTLIKAVVQNTGSDELSFVHLNFFKDPAPVKKVSVYRDGSEVQFEGILSRYKSTGLSRDAFTYLAPGESVEDVFDIASTYDLTSGGPVTIRTEGVVPYATANSTDIAGYISYSSNVLTIDVDGAAAATVSKAITPLDRRTRISSCSGSRQSALTTALRNAASLANKAADAAQSGSASKFSEYFKTTSSSTRQTVAARLRAVAREASSSSSGATTYYCDDPFGYCSGNVLAYTLPSYNIIANCPIFYTYLPPLTSTCHAQDQATTVLHEFTHAPGVYSPGTLDLAYGYQAAMGLSSSQAVMNADTYALYANAIYLGC	–	–	Relative activity 75° C./70° C. (Table 5, lower part): 107%; Relative activity 80° C./70° C. (Table 5, lower part): 36%
JTP189: protease variant of SEQ ID NO: 3: D79L Y82F S87G A112P A126V D142L (protein, listed as Thermoascus aurantiacus) MRLVASLTALVALSVPVFPAAVNVKRASSYLEITLSQVSNTLIKAVVQNTGSDELSFVHLNFFKDPAPVKKVSVYRDGSEVQFEGILSRYKSTGLSRDAFTYLAPGESVEDVFDIASTYDLTSGGPVTIRTEGVVPYATANSTDIAGYISYSSNVLTIDVDGAAAATVSKAITPLDRRTRISSCSGSRQSALTTALRNAASLANAAADAAQSGSASKFSEYFKTTSSSTRQTVAARLRAVAREASSSSSGATTYYCLDPFGYCSGNVLAYTLPSYNIIANCDIFYTYLPPLTSTCHAQDQATTVLHEFTHAPGVYSPGTLDLAYGYQAAMGLSSSQAVMNADTYALYANAIYLGC	–	46	–
JTP181: protease variant of SEQ ID NO: 3: D79L Y82F S87G Y97W D104P A112P D142L (protein, listed as Thermoascus aurantiacus) MRLVASLTALVALSVPVFPAAVNVKRASSYLEITLSQVSNTLIKAVVQNTGSDELSFVHLNFFKDPAPVKKVSVYRDGSEVQFEGILSRYKSTGLSRDAFTYLAPGESVEDVFDIASTYDLTSGGPVTIRTEGVVPYATANSTDIAGYISYSSNVLTIDVDGAAAATVSKAITPLDRRTRISSCSGSRQSALTTALRNAASLANAAADAAQSGSASKFSEYFKTTSSSTRQTVAARLRAVAREASSSSSGATTYYCLDPFGYCSGNVLAYTLPSWNIIANCPIFYTYLPPLTSTCHAQDQATTALHEFTHAPGVYSPGTLDLAYGYQAAMGLSSSQAVMNADTYALYANAIYLGC	–	45	–
JTP194: protease variant of SEQ ID NO: 3: Y82F S87G D79L D104P A112P A126V D142L (protein, listed as Thermoascus aurantiacus) MRLVASLTALVALSVPVFPAAVNVKRASSYLEITLSQVSNTLIKAVVQNTGSDELSFVHLNFFKDPAPVKKVSVYRDGSEVQFEGILSRYKSTGLSRDAFTYLAPGESVEDVFDIASTYDLTSGGPVTIRTEGVVPYATANSTDIAGYISYSSNVLTIDVDGAAAATVSKAITPLDRRTRISSCSGSRQSALTTALRNAASLANAAADAAQSGSASKFSEYFKTTSSSTRQTVAARLRAVAREASSSSSGATTYYCLDPFGYCSGNVLAYTLPSYNIIANCPIFYTYLPPLTSTCHAQDQATTVLHEFTHAPGVYSPGTLDLAYGYQAAMGLSSSQAVMNADTYALYANAIYLGC	–	–	Relative activity 85° C./70° C. (Table 5, upper part): 22%
JTP193: protease variant of SEQ ID NO: 3: Y82F S87G S70V D79L D104P A112P D142L (protein, listed as Thermoascus aurantiacus) MRLVASLTALVALSVPVFPAAVNVKRASSYLEITLSQVSNTLIKAVVQNTGSDELSFVHLNFFKDPAPVKKVSVYRDGSEVQFEGILSRYKSTGLSRDAFTYLAPGESVEDVFDIASTYDLTSGGPVTIRTEGVVPYATANSTDIAGYISYSSNVLTIDVDGAAAATVSKAITPLDRRTRISSCSGSRQSALTTALRNAASLANAAADAAQSGSASKFSEYFKTTSSSTRQTVAARLRAVAREASSSVSGATTYYCLDPFGYCSGNVLAYTLPSYNIIANCPIFYTYLPPLTSTCHAQDQATTALHEFTHAPGVYSPGTLDLAYGYQAAMGLSSSQAVMNADTYALYANAIYLGC	–	–	Relative activity 85° C./70° C. (Table 5, upper part): 15%
JTP145: protease variant of SEQ ID NO: 3: S49P D79L S87P A112P D142L (protein, listed as Thermoascus aurantiacus) MRLVASLTALVALSVPVFPAAVNVKRASSYLEITLSQVSNTLIKAVVQNTGSDELSFVHLNFFKDPAPVKKVSVYRDGSEVQFEGILSRYKSTGLSRDAFTYLAPGESVEDVFDIASTYDLTSGGPVTIRTEGVVPYATANSTDIAGYISYSSNVLTIDVDGAAAATVSKAITPLDRRTRISSCSGSRQSALTTALRNAASLANAAADAAQSGSASKFSEYFKTTSPSTRQTVAARLRAVAREASSSSSGATTYYCLDPYGYCSPNVLAYTLPSYNIIANCDIFYTYLPPLTSTCHAQDQATTALHEFTHAPGVYSPGTLDLAYGYQAAMGLSSSQAVMNADTYALYANAIYLGC	82	59	–
JTP148: protease variant of SEQ ID NO: 3: D79L S87P D104P A112P D142L (protein, listed as Thermoascus aurantiacus) MRLVASLTALVALSVPVFPAAVNVKRASSYLEITLSQVSNTLIKAVVQNTGSDELSFVHLNFFKDPAPVKKVSVYRDGSEVQFEGILSRYKSTGLSRDAFTYLAPGESVEDVFDIASTYDLTSGGPVTIRTEGVVPYATANSTDIAGYISYSSNVLTIDVDGAAAATVSKAITPLDRRTRISSCSGSRQSALTTALRNAASLANAAADAAQSGSASKFSEYFKTTSSSTRQTVAARLRAVAREASSSSSGATTYYCLDPYGYCSPNVLAYTLPSYNIIANCPIFYTYLPPLTSTCHAQDQATTALHEFTHAPGVYSPGTLDLAYGYQAAMGLSSSQAVMNADTYALYANAIYLGC	76	64	–
JTP146: protease variant of SEQ ID NO: 3: S50P D79L S87P A112P D142L (protein, listed as Thermoascus aurantiacus) MRLVASLTALVALSVPVFPAAVNVKRASSYLEITLSQVSNTLIKAVVQNTGSDELSFVHLNFFKDPAPVKKVSVYRDGSEVQFEGILSRYKSTGLSRDAFTYLAPGESVEDVFDIASTYDLTSGGPVTIRTEGVVPYATANSTDIAGYISYSSNVLTIDVDGAAAATVSKAITPLDRRTRISSCSGSRQSALTTALRNAASLANAAADAAQSGSASKFSEYFKTTSSPTRQTVAARLRAVAREASSSSSGATTYYCLDPYGYCSPNVLAYTLPSYNIIANCDIFYTYLPPLTSTCHAQDQATTALHEFTHAPGVYSPGTLDLAYGYQAAMGLSSSQAVMNADTYALYANAIYLGC	83	63	–
JTP180: protease variant of SEQ ID NO: 3: S70V D79L Y82F S87G Y97W A112P D142L (protein, listed as Thermoascus aurantiacus) MRLVASLTALVALSVPVFPAAVNVKRASSYLEITLSQVSNTLIKAVVQNTGSDELSFVHLNFFKDPAPVKKVSVYRDGSEVQFEGILSRYKSTGLSRDAFTYLAPGESVEDVFDIASTYDLTSGGPVTIRTEGVVPYATANSTDIAGYISYSSNVLTIDVDGAAAATVSKAITPLDRRTRISSCSGSRQSALTTALRNAASLANAAADAAQSGSASKFSEYFKTTSSSTRQTVAARLRAVAREASSSVSGATTYYCLDPFGYCSGNVLAYTLPSWNIIANCDIFYTYLPPLTSTCHAQDQATTALHEFTHAPGVYSPGTLDLAYGYQAAMGLSSSQAVMNADTYALYANAIYLGC	–	52	–
JTP187: protease variant of SEQ ID NO: 3: S70V D79L Y82F S87G A112P D142L (protein, listed as Thermoascus aurantiacus) MRLVASLTALVALSVPVFPAAVNVKRASSYLEITLSQVSNTLIKAVVQNTGSDELSFVHLNFFKDPAPVKKVSVYRDGSEVQFEGILSRYKSTGLSRDAFTYLAPGESVEDVFDIASTYDLTSGGPVTIRTEGVVPYATANSTDIAGYISYSSNVLTIDVDGAAAATVSKAITPLDRRTRISSCSGSRQSALTTALRNAASLANAAADAAQSGSASKFSEYFKTTSSSTRQTVAARLRAVAREASSSVSGATTYYCLDPFGYCSGNVLAYTLPSYNIIANCDIFYTYLPPLTSTCHAQDQATTALHEFTHAPGVYSPGTLDLAYGYQAAMGLSSSQAVMNADTYALYANAIYLGC	–	45	–
JTP161: protease variant of SEQ ID NO: 3: D79L Y82F S87G A112P D142L (protein, listed as Thermoascus aurantiacus) MRLVASLTALVALSVPVFPAAVNVKRASSYLEITLSQVSNTLIKAVVQNTGSDELSFVHLNFFKDPAPVKKVSVYRDGSEVQFEGILSRYKSTGLSRDAFTYLAPGESVEDVFDIASTYDLTSGGPVTIRTEGVVPYATANSTDIAGYISYSSNVLTIDVDGAAAATVSKAITPLDRRTRISSCSGSRQSALTTALRNAASLANAAADAAQSGSASKFSEYFKTTSSSTRQTVAARLRAVAREASSSSSGATTYYCLDPFGYCSGNVLAYTLPSYNIIANCDIFYTYLPPLTSTCHAQDQATTALHEFTHAPGVYSPGTLDLAYGYQAAMGLSSSQAVMNADTYALYANAIYLGC	–	30	Relative activity 85° C./70° C. (Table 5, upper part): 12%
